This passage reports transcriptional repression factor over Gal4-DBD alone, dual luciferase reporter assay in HeLa cells (KRAB domain as Gal4-DBD fusion) results from article PMC8835667.

The assay has as its target tripartite motif containing 28 (TRIM28) (human (endogenous in HeLa)) (UniProt Q13263).

Chain of tripartite motif containing 28 (TRIM28) (human (endogenous in HeLa)) (Q13263 whole entry): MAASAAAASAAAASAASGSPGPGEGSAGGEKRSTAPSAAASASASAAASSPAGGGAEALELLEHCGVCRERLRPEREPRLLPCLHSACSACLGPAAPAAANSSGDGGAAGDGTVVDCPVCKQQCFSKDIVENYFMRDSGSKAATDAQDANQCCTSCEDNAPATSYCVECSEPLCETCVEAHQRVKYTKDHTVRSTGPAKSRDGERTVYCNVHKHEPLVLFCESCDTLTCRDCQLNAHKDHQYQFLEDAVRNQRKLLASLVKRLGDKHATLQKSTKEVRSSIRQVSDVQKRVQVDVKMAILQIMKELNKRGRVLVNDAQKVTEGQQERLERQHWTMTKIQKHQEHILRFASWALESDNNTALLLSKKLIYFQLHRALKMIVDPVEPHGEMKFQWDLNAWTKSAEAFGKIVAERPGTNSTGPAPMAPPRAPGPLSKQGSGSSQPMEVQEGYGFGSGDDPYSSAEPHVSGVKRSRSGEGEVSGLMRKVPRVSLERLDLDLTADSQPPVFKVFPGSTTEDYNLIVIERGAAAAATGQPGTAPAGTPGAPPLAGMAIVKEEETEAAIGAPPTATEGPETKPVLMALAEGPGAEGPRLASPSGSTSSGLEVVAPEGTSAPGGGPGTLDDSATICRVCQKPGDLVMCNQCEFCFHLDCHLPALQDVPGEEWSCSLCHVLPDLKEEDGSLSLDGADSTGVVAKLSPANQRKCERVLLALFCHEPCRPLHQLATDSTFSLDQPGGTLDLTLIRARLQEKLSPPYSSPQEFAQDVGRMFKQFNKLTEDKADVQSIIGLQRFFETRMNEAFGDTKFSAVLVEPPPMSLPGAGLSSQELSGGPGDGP

Take “GST fusion of wild-type PRDM9 aKRAB-A with ZNF10-B (domain or fragment)”: the transcriptional repression factor over Gal4-DBD alone, dual luciferase reporter assay in HeLa cells (KRAB domain as Gal4-DBD fusion) came to 0.9 fold.
